Drawing on US20170000849A1, “CD300A RECEPTORS AS VIRUS ENTRY COFACTORS” (INSTITUT NATIONAL DE LA SANTE ET DE LA RECHERCHE MEDICALE …, priority 2013, published 2017), this text covers inhibition of DV2 JAM infection of HekCD300a cells (flow cytometry) for one substance.

The target in this test is human CD300a expressed on Hek293T cells (HekCD300a) (human). Briefly: cell-based or functional assay.

“goat polyclonal antibody to CD300a (AF2640)”: the inhibition of DV2 JAM infection of HekCD300a cells (flow cytometry) was 80%.
